This passage reports Km and kcat results from publication PMC7681013, “Structure and kinetics of indole-3-glycerol phosphate synthase from Pseudomonas aeruginosa: Decarboxylation is not essential for indole formation” (The Journal of Biological Chemistry, 2020).

Substrate in the data set: O=C(CNc1ccccc1)[C@H](O)[C@H](O)COP(=O)(O)O
Briefly: discontinuous spectrophotometric assay of IGP formation (A278). The following applies: 50 mM Tris-HCl, 4 mM MgCl2, 0.5 mM TCEP, pH 7.0, 25 °C, substrate made enzymatically in situ from aniline and PRPP, 2.5 μM enzyme. The format is biochemical, Pseudomonas aeruginosa.

B1: PaIGPS (Pseudomonas aeruginosa PAO1) (protein)
chain: MSVPTVLQKILARKAEEVAERRARVNLAEVERLARSADAPRGFANALLERAKRKEPAVIAEIKKASPSKGVLREHFVPAEIARSYEAGGAACLSVLTDVDFFQGADAYLKEARAACALPVIRKDFMIDPYQIVEARAIGADCILLIVSALDDVLMAELAATAKSVGLDVLVEVHDGTELERALKTLDTPLVGINNRNLHTFEVSLETTLDLLPEIPRDRLVVTESGILNRADVELMEVSEVYAFLVGEAFMRADDPGLELKRLFFQERGAVVLGADPD
For B1, the Km turned out to be 180 ± 50 µM and the kcat amounted to 0.00442 ± 0.000389 s⁻¹.

One may read the Km as the substrate concentration at which the rate is half of its maximum. One may read the kcat as the maximal rate divided by the concentration of active sites.
